How the values were obtained:
[1] = target: T1, Recombinant Flag-tagged human PRMT5 (human, UniProt O14744 1-637); assay: pull-down; XlMEP50 and Flag-HsPRMT5 (both 50 nM) on anti-Flag M2 agarose in TBS, 4°C, 2 hours; eluate immunoblotted for PRMT5 and MEP50; control: MEP50 without PRMT5; conditions: both partners purified
T1 construct: Protein arginine methyltransferase 5 (PRMT5), human; also called Flag-HsPRMT5; HsPRMT5; source: bought: SinoBiologicals (expressed in 293 cells)

[2] = target: the molecule itself; assay: crystal structure; XlPRMT5-MEP50 co-crystallised with 1 mM SAH; 30%–40% MPD, 100 mM Bis-Tris pH 5.5, 18°C; 3.0 Å

T1 sequence (O14744 whole entry): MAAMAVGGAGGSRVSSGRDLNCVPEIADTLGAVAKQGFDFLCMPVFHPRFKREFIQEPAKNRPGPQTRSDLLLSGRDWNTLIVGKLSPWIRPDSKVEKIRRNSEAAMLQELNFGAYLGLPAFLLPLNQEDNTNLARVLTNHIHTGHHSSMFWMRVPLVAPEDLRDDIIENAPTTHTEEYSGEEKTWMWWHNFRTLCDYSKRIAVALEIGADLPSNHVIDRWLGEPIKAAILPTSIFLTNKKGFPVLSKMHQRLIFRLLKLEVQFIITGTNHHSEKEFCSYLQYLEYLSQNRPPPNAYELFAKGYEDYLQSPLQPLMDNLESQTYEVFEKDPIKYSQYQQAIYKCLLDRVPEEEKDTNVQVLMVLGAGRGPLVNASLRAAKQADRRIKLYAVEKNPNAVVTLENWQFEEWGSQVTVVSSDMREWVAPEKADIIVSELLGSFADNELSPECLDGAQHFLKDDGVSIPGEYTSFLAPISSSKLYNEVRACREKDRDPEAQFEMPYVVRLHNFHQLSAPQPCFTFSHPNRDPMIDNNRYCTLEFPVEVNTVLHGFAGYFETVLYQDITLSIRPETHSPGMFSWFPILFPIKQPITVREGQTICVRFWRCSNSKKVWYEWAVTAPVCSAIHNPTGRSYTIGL

Row | Binder | binding result [1] | stoichiometry N [2]
1 | Recombinant Xenopus laevis MEP50 alone (natural protein, UniProt Q6NUD0 1-333, looked up, MEP50, Xenopus laevis; recombinant protein used without PRMT5; also called XlMEP50; Xenopus MEP50) MSKGSAWGRPVTAPACMEVQIGAVRYRRDGALLLAASSLSSRTWGGSIWVFKDPEGAPNESLCTAGVQTEAGVTDVAWVSEKGILVASDSGAVELWEILEKESLLVNKFAKYEHDDIVKTLSVFSDGTQAVSGGKDFSVKVWDLSQKAVLKSYNAHSSEVNCVAACPGKDTIFLSCGEDGRILLWDTRKPKPATRIDFCASDTIPTSVTWHPEKDDTFACGDETGNVSLVNIKNPDSAQTSAVHSQNITGLAYSYHSSPFLASISEDCTVAVLDADFSEVFRDLSHRDFVTGVAWSPLDHSKFTTVGWDHKVLHHHLPSEGRTENLIATKAED | binds | –
2 | Xenopus laevis PRMT5 (enzyme, UniProt Q6NUA1 1-633, looked up, Protein arginine methyltransferase 5 (PRMT5), Xenopus laevis, full-length, as the PRMT5 chain of the crystallised XlPRMT5-MEP50 complex; The complex was purified on Ni-NTA, so one or both chains probably carry a His tag; A selenomethionine form was used for phasing; also called XlPRMT5; source: Hi5 cells, baculovirus, co-expressed with MEP50, purified (Ni-NTA, Superdex 200)) MAAGDGGRVSSGRDVACVTEVADTLGAMANQGFDFLCMPIFHPRFKREFYKEPAKSRPGPQTRSDLLLSGRDWNTLIVGKLSDWIKTDSEVSRIRKTSEAAMQQELNFSAYLGLPAFLIPLKQEDNSNLSRLLINHIHVGHHSTMFWMRVPLMAPNDLRDDLIENEPISLSEEDNSGEERTWIWWHNFRSLCDYNKKIALAIEIGADLPSGHVIDRWLGEPIKAAFLPTSIFLTNKKGFPVLTKVHQRLIFKLFKLEVQFVISGSHHHSEKDLCSYLQYLEYLSQNSPPPNAYEMFAKGYEDYLQSPLQPLMDNLESQTYEVFEKDPVKYSQYQQAVYKCLLDRVPEEEKETNIQILMVLGAGRGPLVNASLRAAKQAERKIKVYAVEKNPNAVITLEGWRYEEWGSQVTVVSGDMREWKAPEKADIIVSELLGSFGDNELSPECLDGAQHFLKDDGVSIPGEYTSYLAPISSSKLYNEVRACREKDRDPEAQFEMPYVVRLHNFHQLSDPLPCFTFHHPNKDDVIDNNRYCCLQYRVDLNTVLHGFAGYFNTVLYKDVTLSICPESHSPGMFSWFPILFPIKQPIPMREGDTVCVRFWRCNNGKKVWYEWAVTSPVCSAIHNPTGRSYTIGL | – | 4

— paper PMC3581573 (PLoS ONE, 2013)
